In patent US20080311122A1 (AstraZeneca / MedImmune, published 2008):

Experiments:
[1] = biological target: T1, recombinant HMG1 purified from E. coli as a calmodulin binding protein (CBP) fusion protein (human, UniProt A9RA84 1-215 (Papio anubis entry)); assay: cell-based or functional assay
T1 sequence: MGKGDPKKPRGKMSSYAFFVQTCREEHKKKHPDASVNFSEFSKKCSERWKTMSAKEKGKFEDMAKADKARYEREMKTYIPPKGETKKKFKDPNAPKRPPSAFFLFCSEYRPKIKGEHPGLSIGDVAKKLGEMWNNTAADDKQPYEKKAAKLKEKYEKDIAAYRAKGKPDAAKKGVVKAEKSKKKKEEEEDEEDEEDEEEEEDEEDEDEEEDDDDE

[2] = biological target: T1, recombinant HMG1 purified from E. coli …; assay: BIAcore, mAb immobilized, HMG1 injected, steady-state model
Protocol: HMG1 Binding Affinity via BIAcore Analysis: All experiments were performed on a BIAcore 3000 instrument (BIAcore, Inc., Piscataway, N.J.). Briefly, each mAb was immobilized to a CM5 sensor chip using a standard amino coupling chemistry. Separately a reference (control) flow cell was also prepared. Two-fold, serial dilutions of HMG1 in instrument buffer were sequentially injected at a slow flow rate over the individual mAb and reference flow-cell surfaces. Following the binding and dissociation of HMG1, the mAbs surfaces were regenerated with a brief pulse of 1M NaCl-50 mM NaOH. At the end of each experiment, the binding curves were evaluated using a steady-state model available through the BIA evaluation software supplied by BIAcore, Inc. (Piscataway, N.J.).

[3] = biological target: T2, HMG2 (UniProt P40673 2-209, limits assumed); assay: ELISA, wells coated with HMGB2 at 5 ug/mL, OD 490
T2 construct: also called HMGB2; HMBG2
T2 sequence (looked up): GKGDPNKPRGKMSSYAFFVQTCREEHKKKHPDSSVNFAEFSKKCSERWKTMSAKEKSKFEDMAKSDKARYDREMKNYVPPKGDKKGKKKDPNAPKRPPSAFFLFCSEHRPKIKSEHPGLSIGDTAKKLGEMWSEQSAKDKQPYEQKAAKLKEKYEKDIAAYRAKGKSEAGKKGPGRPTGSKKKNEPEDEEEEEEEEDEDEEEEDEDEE
Protocol: (§1) Binding to HMG1 vs. HMG2: Ultra high-binding ELISA plates (ThermoLab systems, #3855) were coated with either 5 ug/mL of Calf thymus HMGB1 or HMBG2 diluted in 10 mM Phosphate buffered saline (PBS), pH 7.2 and incubate overnight at 4 degrees. The plates were washed twice with Ca and Mg free PBS and 100 microliters of anti-HMGB1 antibody diluted in 10 mM PBS, pH 7.2+1% bovine serum albumin (BSA) to a final concentration of 10 ug/mL was added to each well and the plates were incubated 1 hour at room temperature. The wells were washed three times with 100 μl of PBS, pH 7.2. HRP labeled goat-anti-human IgG Kappa-chain (KPL, #14-10-10) and goat-anti-human IgG Lambda-chain (KPL, #14-10-11) were diluted in 10 mM PBS+1% BSA 1:1000 and 100 μl were added to each well and incubated for 1 hour at room temperature. The wells were then washed three times with 100 μl of PBS, pH 7.2. OPD substrate (Pierce chemical company, #34006) was prepared following the manufacturers instructions and 100 μl of prepared substrate was added to each well and the plates incubated at room temperature in the dark for 20-30 minutes. The reaction was stopped with the addition of 100 μl of 2M H₂SO₄, and the plates read on a plate reader at a wavelength of 490 nm.

[4] = biological target: T3, HMG1 B Box peptide amino acids 91-169; assay: ELISA, wells coated with HMG1 B Box peptide 91-169 at 10 ug/ml
T3 construct: also called HMG1 peptide 91-169
T3 peptide: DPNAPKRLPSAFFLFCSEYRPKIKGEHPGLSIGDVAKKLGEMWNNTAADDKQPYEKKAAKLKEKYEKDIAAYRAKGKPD
Protocol: (§2) The plate was then blocked with 4% milk powder dissolved in PBS at 37° C. for 1 hour. The blocking solution was removed and replaced with human anti-HMG1 antibodies at various concentrations (see FIGS. 5A-B). […] HRP activity was detected with Sureblue HRP substrate (KPL). Plates were read at 450 nm using a Kinetic Microplate Reader (Molecular Devices). […] After washing and blocking with 1% BSA in PBS, the biotinylated peptides were individually added into the avidin coated wells and incubated for 30 min at room temperature. The serial diluted antibody G4, S16 and S6 at the initial concentration at 10 μg/ml were then transferred into the wells followed by adding mouse anti human IgG-HRP conjugate (Pierce). Detection was accomplished by adding 50 μl of tetramethylbenzidine (TMB) substrate (KPL) and the absorbance was read at […].

[5] = biological target: T4, HMG1 B Box peptide amino acids 150-183; assay: ELISA, wells coated with HMG1 B Box peptide 150-183 at 10 ug/ml
T4 peptide: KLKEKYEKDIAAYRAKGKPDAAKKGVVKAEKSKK
Protocol: as §2

[6] = biological target: T5, HMG1 purified from bovine (calf) thymus (bovine, UniProt P10103 2-215); assay: ELISA, wells coated with calf thymus HMGB1 at 5 ug/mL, antibody at 10 ug/mL, anti-human kappa/lambda-HRP, OD 490
T5 construct: also called Calf thymus HMGB1; thymus HMG1
T5 sequence (looked up): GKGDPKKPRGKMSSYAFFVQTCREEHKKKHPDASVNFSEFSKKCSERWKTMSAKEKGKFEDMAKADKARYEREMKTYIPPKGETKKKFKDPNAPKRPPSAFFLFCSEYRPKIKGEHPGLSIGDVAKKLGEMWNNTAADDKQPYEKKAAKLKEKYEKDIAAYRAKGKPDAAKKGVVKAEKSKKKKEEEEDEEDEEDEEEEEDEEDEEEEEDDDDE
Protocol: as §1

Row | Binder | IC50, inhibition of rHMG1 stimulated IL-1β release from human PBMC [1] [µg/mL] | IC50, inhibition of rHMG1 stimulated IL-6 release from human PBMC [1] [nM] | IC50, inhibition of rHMG1 stimulated TNF-α release from human PBMC [1] [µg/mL] | Kd [2] [nM] | binding result [3] | binding result [4] | binding result [5] | binding result [6] | IC50, inhibition of HMG1 stimulated NO release from macrophages [1] [µg/mL] | IC50, inhibition of rHMG1 stimulated IL-12 release from human PBMC [1] [µg/mL]
1 | anti-HMG1 antibody G9 (antibody, V domains shown) VH: EVQLLESGGGLVQPGGSLRLSCAASGFTFSSYDMFWVRQAPGKGLEWVSRISPSGGYTYYADSVKGRFTISRDNSKNTLYLQMNSLRAEDTAVYYCARLRYFDSRGYAFDIWGQGTMVTVSS VL: DIQMTQSPGTLSLSPGERATLSCRASQSVRSSYLAWYQQKPGQAPRLLIYGASTRATGIPDRFSGSGSGTDFTLTISRLEPEDFAVYYCQQYGTSRWTFGQGTKVEIK | 0.211 | 0.246 | 0.248 | 125 | no binding (tested: 10 ug/mL (not on the sheet)) | no binding (tested: 10 ug/ml (log 1.00)) | no binding (tested: 10 ug/ml (log 1.00)) | binds |  | 
2 | anti-HMG1 antibody G35 (antibody, V domains shown) VH: EVQLLESGGGLVQPGGSLRLSCAASGFTFSWYKMVWVRQAPGKGLEWVSSIVPSGGITIYADSVKGRFTISRDNSKNTLYLQMNSLRAEDTAVYYCARVQQWLGRPYFDYWGQGTLVTVSS VL: DIQMTQSPLSLPVTPGEPASISCRSSQSLLHGNGYNYLDWYLQRPGQSPQLLIYSGSNRASGVPDRFSGSGSGTDFTLKISRVEAEDVGVYYCMQSLQSRTFGQGTKVEIK |  | 0.564 |  | 242 | no binding (tested: 10 ug/mL (not on the sheet)) |  | no binding (tested: 10 ug/ml (log 1.00)) | binds |  | 
3 | anti-HMG1 antibody G20 (antibody, V domains shown) VH: EVQLLESGGGLVQPGGSLRLSCAASGFTFSWYDMFWVRQAPGKGLEWVSWISPSGGYTKYADSVKGRFTISRDNSKNTLYLQMNSLRAEDTAMYYCARSGLDYYDSSGYLDAFDIWGQGTMVTVSS VL: DIQMTQSPSSVSASVGDRVTITCRASQDVSIWLAWYQQKPGKAPKLLIFGASRLQSGVPSRFSGSRSGADFTLTIDSVQPEDFASYYCQQADSFPLTFGGGTKVEIK | 0.4 | 0.652 | 0.598 |  | no binding (tested: 10 ug/mL (not on the sheet)) | no binding (tested: 10 ug/ml (log 1.00)) |  | binds | 20.4 | 
4 | anti-HMG1 antibody G12 (antibody, V domains shown) VH: EVQLLESGGGLVQPGGSLRLSCAASGFTFSYYMMTWVRQAPGKGLEWVSSISPSGGYTIYADSAKGRFTISRDNSKNTLYLQMNSLRAEDTAVYYCARALSTGSFWDYWGQGTLVTVSS VL: DIQMTQSPGTLSLSPGERATLSCRASESLTSTYVAWYQHKPGQAPRLLIHGGSTRATGIPVRFSGSGSGTDFTLTIATLEPEDFAVYYCQQYGSSPYTFGQGTKLEIK | 5.91 | 1.12 | 0.796 | 73 | no binding (tested: 10 ug/mL (not on the sheet)) | no binding (tested: 10 ug/ml (log 1.00)) | no binding (tested: 10 ug/ml (log 1.00)) | binds |  | 2.79
5 | anti-HMG1 antibody S14 (antibody, V domains shown) VH: EVQLLESGGGLVQPGGSLRLSCAASGFTFSWYETGWVRQAPGKGLEWVSGISPSGGYTQYADSVKGRFTISRDNSKNTLYLQMNSLRAEDTAVYYCARSGVGATKIFDYWGQGTLVTVSS VL: DIQMTQSPSSLSASVGDRVTIICRANERINTYLNWYQQKPGKAPKLLISGTSSLESGVPSRFSGSGSGTEFTLSISSLQPEDFASYYCQQSYSSPYTFGQGTNLEIR | 0.0678 | 0.191 | 0.0662 | 205 | no binding (tested: 10 ug/mL (not on the sheet)) | no binding (tested: 10 ug/ml (log 1.00)) | no binding (tested: 10 ug/ml (log 1.00)) | binds |  | 
6 | anti-HMG1 antibody G34 (antibody, V domains shown) VH: EVQLLESGGGLVQPGGSLRLSCAASGFTFSHYMMGWVRQAPGKGLEWVSRISPSGGGTVYADSVKGRFTISRDNSKNTLYLQMNSLRAEDTAVYYCARGGNWNYISYYYYYLDVWGKGTTVTVSS VL: DIQMTQSPSSLSASVGDRVAITCRASQSIDTYLNWYQQKPGKAPKLLIYAASKLEDGVPSRFSGSGTGTDFTLTIRSLQPEDFASYFCQQSYSSPGITFGPGTKVEIK |  | 0.858 |  | 67 | no binding (tested: 10 ug/mL (not on the sheet)) | no binding (tested: 10 ug/ml (log 1.00)) | no binding (tested: 10 ug/ml (log 1.00)) | binds |  | 
